Test results: the supplement of paper PMC9233669
Variants at the floor of the assay were thinned out.

How the values were obtained:
[1] = system: biotinyl-Trp-oxazolone; experiment: self-aminoacylation, catalytic enhancement (BWO) (fold over background); higher = more active; k-Seq, kA / k0A0; sequences stand for … in GGGAAUGGAUCCACAUCUACGAAUUC…UUCACUGCAGACUUGACGAAGCUG
In short: (§1)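 Mutagenized RNA pools with a 21-nt variable region (0.43 μM) reacted with each biotinyl-aminoacyl-oxazolone at 2–1250 μM. Reactions ran in 50 μL HEPES/NaCl/KCl/MgCl2/CaCl2 buffer with 5% acetonitrile, pH 6.9–7.0, for 90 minutes at room temperature. Streptavidin-captured RNA was quantified by triplicate qPCR and Illumina sequencing, and per-sequence fraction reacted was fit to a pseudo-first-order model with 1000 bootstraps. Catalytic enhancement is median kA divided by the uncatalyzed rate, the low-activity peak of a bimodal Gaussian fit.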

[2] = system: biotinyl-Leu-oxazolone; experiment: self-aminoacylation, catalytic enhancement (BLO) (fold over background); higher = more active; k-Seq, kA / k0A0; sequences stand for … in GGGAAUGGAUCCACAUCUACGAAUUC…UUCACUGCAGACUUGACGAAGCUG
In short: as §1

[3] = system: biotinyl-Ile-oxazolone; experiment: self-aminoacylation, catalytic enhancement (BIO) (fold over background); higher = more active; k-Seq, kA / k0A0; sequences stand for … in GGGAAUGGAUCCACAUCUACGAAUUC…UUCACUGCAGACUUGACGAAGCUG
In short: as §1

[4] = system: biotinyl-Met-oxazolone; experiment: self-aminoacylation, catalytic enhancement (BMO) (fold over background); higher = more active; k-Seq, kA / k0A0; sequences stand for … in GGGAAUGGAUCCACAUCUACGAAUUC…UUCACUGCAGACUUGACGAAGCUG
In short: as §1

[5] = system: biotinyl-Phe-oxazolone; experiment: self-aminoacylation, catalytic enhancement (BFO) (fold over background); higher = more active; k-Seq, kA / k0A0; sequences stand for … in GGGAAUGGAUCCACAUCUACGAAUUC…UUCACUGCAGACUUGACGAAGCUG
In short: as §1

[6] = system: biotinyl-Val-oxazolone; experiment: self-aminoacylation, catalytic enhancement (BVO) (fold over background); higher = more active; k-Seq, kA / k0A0; sequences stand for … in GGGAAUGGAUCCACAUCUACGAAUUC…UUCACUGCAGACUUGACGAAGCUG
In short: as §1

Sequence	self-aminoacylation [1]	self-aminoacylation [2]	self-aminoacylation [3]	self-aminoacylation [4]	self-aminoacylation [5]	self-aminoacylation [6]
AUUCCCCUAGGACAUCGGGUG [Fam2.2 aminoacylation ribozyme variant]	8.25	9.47	6.12	7.14	44.8	6.82
AUUCCCCUAGGCCAUCGGGUG [Fam2.2 aminoacylation ribozyme variant]	12.5	19.3	8.31	13.6	119	9.59
AUUCCCCUAGGUCAACGGGUG [Fam2.2 aminoacylation ribozyme variant]	11.5	15.4	6.94	11.5	84.2	6.99
AUUCCCCUAGGUCAGCGGGUG [Fam2.2 aminoacylation ribozyme variant]	11	14.1	8.05	11.1	61.3	7.83
AUUCCCCUAGGUCAUCAGGUG [Fam2.2 aminoacylation ribozyme variant]	7.46	8.19	6.44	8.46	29.4	6.96
AUUCCCCUAGGUCAUCGGGAG [Fam2.2 aminoacylation ribozyme variant]	8.9	9.02	6.89	8.27	19.4	6.76
AUUCCCCUAGGUCAUCGGGCG [Fam2.2 aminoacylation ribozyme variant]	9.17	13.5	9.9	15.7	81.8	11.3
AUUCCCCUAGGUGAUCGGGUG [Fam2.2 aminoacylation ribozyme variant]	10.8	11.8	7.9	10.9	47.7	7.89
AUUCCCCUGAUCAUCGAGUGA [Fam2.1 aminoacylation ribozyme variant]	7.4	5.83	3.81	6.39	8.85	4.2
AUUCCCCUGGGUCAUCGGGUG [Fam2.2 aminoacylation ribozyme variant]	13.3	16.9	8.62	12.2	107	9.66
AUUCCCCUGGUAAUCGAGUGA [Fam2.1 aminoacylation ribozyme variant]	7.35	5.9	3.09	6.36	37.7	3.28
AUUCCCCUGGUCAACGAGUGA [Fam2.1 aminoacylation ribozyme variant]	8.98	7.82	4.6	8.04	49.5	4.67
AUUCCCCUGGUCAUCGAGGGA [Fam2.1 aminoacylation ribozyme variant]	1.99	1.56	1.42	1.29	1.62	1.55
AUUCCCUUGGUCAUCGAGUGA [Fam2.1 aminoacylation ribozyme variant]	14.7	12.3	6.22	11.8	71.8	6.58
AUUCGACUAGGUCAUCGGGUG [Fam2.2 aminoacylation ribozyme variant]	6.57	8.63	4.46	7.05	47.3	3.95
AUUCGCCUAGGACAUCGGGUG [Fam2.2 aminoacylation ribozyme variant]	3.67	4.25	2.29	3.03	19.1	3.02
AUUCGCCUAGGUAAUCGGGUG [Fam2.2 aminoacylation ribozyme variant]	2.77	3.88	2.02	3.62	28	2.43
AUUCGCCUAGGUCACCGGGUG [Fam2.2 aminoacylation ribozyme variant]	5.18	8.04	4.4	5.69	49	4.27
AUUCGCCUAGGUCAUCCGGUG [Fam2.2 aminoacylation ribozyme variant]	10.3	10.9	6.5	7.99	78.7	6.7
AUUCGCCUAGGUCAUCGGGCG [Fam2.2 aminoacylation ribozyme variant]	4.35	5.67	3.22	4.99	2.39	3.59
AUUCGCCUAGGUCAUCGGGUG [Fam2.2 aminoacylation ribozyme variant]	37.3	63.8	26.2	45.8	364	23.1
AUUCGCCUAGGUCUUCGGGUG [Fam2.2 aminoacylation ribozyme variant]	9	8.57	5.33	7.49	55.9	5.82
AUUCGCCUGGGUCAUCGGGUG [Fam2.2 aminoacylation ribozyme variant]	14.1	15.8	6	12.9	63.1	7.88
AUUCGCCUGGUCAUCGAGUGA [Fam2.1 aminoacylation ribozyme variant]	6.48	4.99	3.01	4.4	16.6	3.17
AUUCGCUUAGGUCAUCGGGUG [Fam2.2 aminoacylation ribozyme variant]	6.47	8	4.11	7.02	52.5	4.24
AUUCGGCUAGGUCAUCGGGUG [Fam2.2 aminoacylation ribozyme variant]	4.77	4.58	3.06	3.87	24.4	3.7

Sequence	self-aminoacylation [1]	self-aminoacylation [2]	self-aminoacylation [3]	self-aminoacylation [4]	self-aminoacylation [5]	self-aminoacylation [6]
AUUCUACUAGGUCAUCGGGUG [Fam2.2 aminoacylation ribozyme variant]	5.93	7.31	3.7	5.82	41.7	3.87
AUUCUCCUAGGCCAUCGGGUG [Fam2.2 aminoacylation ribozyme variant]	5.32	7	3.49	5.37	33	3.74
AUUCUCCUAGGGCAUCGGGUG [Fam2.2 aminoacylation ribozyme variant]	3.58	4.7	2.92	4.21	28.7	3.73
AUUCUCCUAGGUCAACGGGUG [Fam2.2 aminoacylation ribozyme variant]	5.38	8.2	3.79	6.57	46.7	3.61
AUUCUCCUAGGUCAUCCGGUG [Fam2.2 aminoacylation ribozyme variant]	9.8	12.2	6.71	9.16	65.5	6.42
AUUCUCCUAGGUCAUCGGGCG [Fam2.2 aminoacylation ribozyme variant]	4.23	5.06	3.24	3.97	13.6	3.43
AUUCUCCUAGGUCAUCGGGUG [Fam2.2 aminoacylation ribozyme variant]	12.3	17.7	8.11	13	82.4	8.06
AUUCUCCUAGGUCAUCGGGUU [Fam2.2 aminoacylation ribozyme variant]	3.6	4.14	3.08	3.79	14.8	3.07
AUUCUCCUAGGUCUUCGGGUG [Fam2.2 aminoacylation ribozyme variant]	7.39	8.25	4.96	7.28	44.1	4.77
AUUCUCCUAGGUGAUCGGGUG [Fam2.2 aminoacylation ribozyme variant]	4.65	4.94	3.17	3.62	26.4	3.62
AUUCUCCUAGGUUAUCGGGUG [Fam2.2 aminoacylation ribozyme variant]	6.28	8.02	4.08	6.52	40.2	3.88
AUUCUCCUAUGUCAUCGGGUG [Fam2.2 aminoacylation ribozyme variant]	8.54	11.6	5.5	9.01	65.9	5.62
AUUCUCCUCGGUCAUCGGGUG [Fam2.2 aminoacylation ribozyme variant]	11.6	15.5	8.05	11.3	108	7.28
AUUCUCCUGGGUCAUCGGGUG [Fam2.2 aminoacylation ribozyme variant]	9.42	10.8	6.05	9.61	73.6	7.53
AUUCUCCUUGGUCAUCGGGUG [Fam2.2 aminoacylation ribozyme variant]	9.53	13.8	6.85	9.71	75	7.53
AUUCUGCUAGGUCAUCGGGUG [Fam2.2 aminoacylation ribozyme variant]	9.84	12	5.96	9.46	72.1	6.13
AUUGAACUAGGUCAUCGGGUG [Fam2.2 aminoacylation ribozyme variant]	5.03	4.62	3.36	4.33	30	3.28
AUUGACCGAGGUCAUCGGGUG [Fam2.2 aminoacylation ribozyme variant]	8.13	11	4.88	8.11	54.8	4.8
AUUGACCUAGAUCAUCGGGUG [Fam2.2 aminoacylation ribozyme variant]	3.51	3.59	2.54	3.5	18	2.54
AUUGACCUAGGUCAGCGGGUG [Fam2.2 aminoacylation ribozyme variant]	3.29	3.01	2.61	2.59	12.5	2.86
AUUGACCUAGGUCAUCUGGUG [Fam2.2 aminoacylation ribozyme variant]	2.27	2.42	1.83	1.9	8.46	1.7
AUUGACCUAGGUGAUCGGGUG [Fam2.2 aminoacylation ribozyme variant]	6.18	5.78	4.21	4.22	25.9	3.78
AUUGCCCUAGGUCAUCGGGUG [Fam2.2 aminoacylation ribozyme variant]	7.92	11.8	5.44	8.34	62.7	5.7
AUUGCCCUGGCCAUCGAGUGA [Fam2.1 aminoacylation ribozyme variant]	4.87	4.96	2.48	3.8	25.2	2.74
AUUGCCCUGGUCAGCGAGUGA [Fam2.1 aminoacylation ribozyme variant]	6.28	5.65	3.29	5.91	36.7	3.76
